Source: US20210130481A1 (INSERM INSTITUT NATIONAL DE LA SANTE ET DE LA RECHERCHE …, published 2021)
Numbering of substitutions follows the chain as printed.

B1: mouse IgG2a anti human FSHR antibody 3 (VH CDR1 of SEQ ID NO 3, VH CDR2 of SEQ ID NO 8) (antibody, V domains shown)
VH: QVQLQQSGAELMKPGASVKISCKATGYTFSKQWLLWVKQRPGHGLEWIGEIFPRNGNTNYNEKFKGKATFTADTSSSTAYMQLSSLTSEDSAVYYCARGPTASGYAMDYWGQGTSVTVSS
VL: DVLMTQTPLSLPVSLGDQASISCRSSQSIVHRNGNTYLEWYLQKPGQSPKLLIYKVSNRFSGVPDRFSGSGSGTDFTLKIIRVEAEDLGVYYCFQGSHVPFTFGSGTKLEIK
notes: Mouse IgG2a heavy constant domains and mouse C kappa; also called sample 3; mouse IgG2 FSHR323 variant
B2: mouse IgG2a anti human FSHR antibody 5 (VH CDR1 of SEQ ID NO 5, VH CDR2 of SEQ ID NO 10) (antibody, V domains shown)
VH: B1 VH with Q32Y, L34T, L35Q, F52Y
VL: B1 VL
notes: Mouse IgG2a heavy constant domains and mouse C kappa; also called sample 5; mouse IgG2 FSHR323 variant
B3: mouse IgG2a anti human FSHR antibody 4 (VH CDR1 of SEQ ID NO 4, VH CDR2 of SEQ ID NO 9) (antibody, V domains shown)
VH: B1 VH with K31R, Q32S, L34I, F52Y, R54Q, G56Q
VL: B1 VL
notes: Mouse IgG2a heavy constant domains and mouse C kappa; also called sample 4; mouse IgG2 FSHR323 variant
B4: mouse IgG2a anti human FSHR antibody 2 (VH CDR1 of SEQ ID NO 2, VH CDR2 of SEQ ID NO 7) (antibody, V domains shown)
VH: B1 VH with K31R, L34V, L35I, F52L
VL: B1 VL
notes: Mouse IgG2a heavy constant domains and mouse C kappa; also called sample 2; mouse IgG2 FSHR323 variant
B5: mouse IgG2a anti human FSHR antibody 1 (VH CDR1 of SEQ ID NO 1, VH CDR2 of SEQ ID NO 6) (antibody, V domains shown)
VH: B1 VH with K31Q, Q32F, W33Y, L34V, L35G, N55T
VL: B1 VL
notes: VH was cloned in frame with mouse IgG2a heavy constant domains and the V kappa with mouse C kappa; also called sample 1; mouse IgG2 FSHR323 variant

Legend:
[1] = molecular target: T1, human follicle-stimulating hormone receptor (FSHR) (human, UniProt P23945 18-695); experiment: immunofluorescence microscopy on fixed FSHR-L-cells
T1 construct: whole, on cells; also called huFSHR; hFSHR
T1 sequence (looked up): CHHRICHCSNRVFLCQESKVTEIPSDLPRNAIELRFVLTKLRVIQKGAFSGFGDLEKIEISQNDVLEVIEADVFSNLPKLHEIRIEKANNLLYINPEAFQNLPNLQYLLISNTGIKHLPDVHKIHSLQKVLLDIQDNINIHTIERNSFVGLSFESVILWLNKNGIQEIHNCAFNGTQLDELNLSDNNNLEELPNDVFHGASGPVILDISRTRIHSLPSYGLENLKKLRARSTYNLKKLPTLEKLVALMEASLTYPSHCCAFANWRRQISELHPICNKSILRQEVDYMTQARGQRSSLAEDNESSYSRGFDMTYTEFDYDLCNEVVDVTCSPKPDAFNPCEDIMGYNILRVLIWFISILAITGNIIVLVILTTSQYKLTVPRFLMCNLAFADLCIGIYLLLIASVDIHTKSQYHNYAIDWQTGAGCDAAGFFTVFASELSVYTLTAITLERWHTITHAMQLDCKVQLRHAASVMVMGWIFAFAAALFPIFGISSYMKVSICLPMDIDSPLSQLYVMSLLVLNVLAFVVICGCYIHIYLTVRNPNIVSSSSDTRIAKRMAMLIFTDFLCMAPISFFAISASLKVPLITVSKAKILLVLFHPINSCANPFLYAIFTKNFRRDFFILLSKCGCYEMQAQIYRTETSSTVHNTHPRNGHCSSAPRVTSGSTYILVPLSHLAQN
Protocol: FSHR-L-cells and wild type L-cells were cultured at 37° C. on LabTeck 8-wells (10,000 cells/well) in DMEM containing 10% horse serum, 1 mM glutamine, 1 mM pyruvate in presence of 5% CO₂. When reached 70% confluence, the cells were washed with PBS (three times) and fixed with 4% paraformaldehyde in PBS (15 min at room temperature (RT)). The free aldehyde groups were quenched with 100 mM NH₄Cl in PBS for 15 min at RT (i.e. 20° C.). To block the nonspecific binding of antibodies the cells were incubated 1 hour at RT (i.e. 20° C.) with PBS (pH=7.4) containing 2% goat serum (blocking buffer). FSHR was detected by incubating cells with serial dilutions of the monoclonal primary antibodies 1, 2, 3, 4, and 5 (3 μg/ml−1 μg/ml—0.3 μg/ml−0.1 μg/ml, 0.03 μg/ml, and 0.01 μg/ml of blocking buffer) overnight at 4° C. and with goat anti-mouse IgG-Alexa 555 (Invitrogen #A21137; dilution 1:1000 in blocking buffer) for 1 hour at room temperature. The known FSHR323 antibody (INSERM-Transfert, Paris) was used as a positive IgG2a control (3 μg/ml) as previously described in Radu et al. 2010 [9]. The cell nuclei were detected by incubating cells for 10 min with DAPI (SIGMA-ALDRICH®#32670; dilution 1:1000 in PBS). The slides were mounted in Dako fluorescent mounting medium containing 15 mM sodium azide and examined with an Olympus microscope.

[2] = molecular target: T1, human follicle-stimulating hormone …; experiment: FACS on huFSHR L-cells, 4-fold serial dilutions, goat anti-mouse IgG-APC detection
Protocol: (§1) In order to characterize and to check whether the IgGs anti human FSHR retain specificity for huFSHR and whether they bind to this receptor with higher affinity than known antibody, a binding FACS experiment using different IgGs (MABs) concentrations and huFSHR-L-cell and WT L-cells was performed. These cells were QCed for huFSHR expression.
(§2) The HuFSHR L-cells were prepared as previously described [Vannier et al 1996 [15]. Briefly, mouse L cells were co-transfected, using the calcium phosphate precipitate method, with the plasmid encoding the hFSHR (pSG5-hFSHR) and with the plasmid pSV-Neo, a vector which confers resistance to the antibiotic G 418. Neomycin-resistant cells were selected in DMEM supplemented with 10% fetal calf serum and G 418 (geneticin, SIGMA-ALDRICH®) (1 mg/mL). […] The transfected cells were maintained in medium containing G 418 (200 ig/mL) for further studies. The samples were 4-fold serial dilution of monoclonal antibodies and buffer: FACS buffer (1×PBS containing 0.4 g/l human albumin, pH 7.4).
(§3) 100 μl/well of goat anti-mouse IgG conjugated to APC (GAM-APC) (BD™ Bioscience, 1:500 dilution) was added to the cells and incubated for 30 min at 4° C., gently shaking

[3] = molecular target: T1, human follicle-stimulating hormone …; experiment: peroxidase immunohistochemistry on paraffin sections of human testis; this end is tied to antibody 4 by the example in the sentence (0.2 against 5 µg/ml)
Protocol: Immunohistochemistry: Serial 3-μm-thick sections of human testis tissue (n=30 sections) were cut, attached to SuperFrost slides, deparaffinized with xylene, […] gradually in ethanol and washed with running tap water for 60 min. Access to tissue antigen sites for antibody attachment was enhanced by incubating slides at 90° C. for 40 min with 10 mM citrate buffer, pH 6. After cooling at room temperature (RT) for 20 min, and after each subsequent step, slides were rinsed with PBS. To block endogenous peroxidase activity, the sections were incubated with 6% hydrogen peroxide (15 min at RT, i.e. 20° C.). Sodium borohydride (10 mg/ml PBS) was used to quench free aldehyde groups (15 min, RT i.e. 20° C.). Non-specific binding of antibodies was blocked by incubating slides with 2% goat serum in Phosphate Buffer Saline (PBS) (blocking buffer) at 20° C. (RT) for 2 h. The slides were incubated with serial dilutions of the monoclonal primary antibodies 4, 2, 3 (5 μg/ml−1 μg/ml−0.2 μg/ml−0.04 μg/ml of blocking buffer) in blocking buffer overnight at 4° C. The known FSHR323 antibody (INSERM-Transfert, Paris) was used as a positive IgG2a control. […] The biotinylated goat anti-mouse IgG (Fc-specific) antibody (dilution 1:200), used as secondary antibody, was detected by using streptavidin coupled to horseradish peroxidase (dilution 1:500). […]

[4] = molecular target: T1, human follicle-stimulating hormone …; experiment: FACS on huFSHR L-cells; this end is tied to antibody 2 by Table 2 (1.582/0.08678)
Protocol: as §1, §2, §3

[5] = molecular target: T1, human follicle-stimulating hormone …; experiment: FACS on huFSHR L-cells; this end is tied to antibody 1 by Table 2 (1.582/0.2112)
Protocol: as §1, §2, §3

Binder	fold lower labelling concentration than the optimal concentration of FSHR323 [1]	EC50 [2]	fold higher affinity than FSHR323 (by optimal IHC dilution) [3]	fold improvement of EC50 against the known antibody [4]	fold improvement of EC50 against the known antibody [5]
B1	33 fold	0.0893 nM	–	–	–
B2	33 fold	0.101 nM	–	–	–
B3	33 fold	0.098 nM	25 fold	–	–
B4	33 fold	0.0868 nM	–	18.2 fold	–
B5	33 fold	0.211 nM	–	–	7.5 fold
